Measured values taken from patent publication US20210206838A1.

Experiments:
Experiment in all cases: cell-based or functional assay
[1] = molecular target: envelope glycoprotein of HIV pseudovirus SC05.8C11.2344 (human immunodeficiency virus (HIV))
[2] = molecular target: HIV pseudovirus Du172.17 (envelope glycoprotein) (HIV)
[3] = molecular target: HIV pseudovirus 0260.v5.c36 (envelope glycoprotein) (human immunodeficiency virus (HIV))
[4] = molecular target: HIV pseudovirus CNE52 (envelope glycoprotein) (HIV)
[5] = molecular target: HIV pseudovirus RHPA4259.7 (envelope glycoprotein) (HIV)
[6] = molecular target: HIV pseudovirus BB1012-11.TC21 (envelope glycoprotein) (human immunodeficiency virus (HIV))
[7] = molecular target: envelope glycoprotein of HIV pseudovirus 263-8 (human immunodeficiency virus (HIV))
[8] = molecular target: HIV pseudovirus SC05.8C11.2344 (envelope glycoprotein) (HIV)
[9] = molecular target: envelope glycoprotein of HIV pseudovirus 6952.v1.c20 (human immunodeficiency virus (HIV))
[10] = molecular target: HIV pseudovirus 0260.v5.c36 (envelope glycoprotein) (HIV)
[11] = molecular target: envelope glycoprotein of HIV pseudovirus AC10.0.29 (human immunodeficiency virus (HIV))
[12] = molecular target: HIV pseudovirus CNE52 (envelope glycoprotein) (human immunodeficiency virus (HIV))
[13] = molecular target: envelope glycoprotein of HIV pseudovirus Ce1176_A3 (human immunodeficiency virus (HIV))
[14] = molecular target: envelope glycoprotein of HIV pseudovirus X1193_c1 (human immunodeficiency virus (HIV))
[15] = molecular target: HIV pseudovirus Ce1176_A3 (envelope glycoprotein) (HIV)
[16] = molecular target: HIV pseudovirus RHPA4259.7 (envelope glycoprotein) (human immunodeficiency virus (HIV))
[17] = molecular target: HIV pseudovirus Du172.17 (envelope glycoprotein) (human immunodeficiency virus (HIV))
[18] = molecular target: HIV pseudovirus SC422661.8 (envelope glycoprotein) (human immunodeficiency virus (HIV))

Control (antibody)
IC50 [1]: 0.018 µg/mL
IC80 [1]: 0.084 µg/mL
neutralization IC50 [2]: 0.051 µg/mL
neutralization IC80 [2]: 0.672 µg/mL
neutralization IC50 [3]: 0.027 µg/mL
neutralization IC80 [3]: 0.105 µg/mL
neutralization IC50 [4]: 2.92 µg/mL
neutralization IC80 [4]: 17.8 µg/mL
neutralization IC50 [5]: 0.018 µg/mL
neutralization IC80 [5]: 0.047 µg/mL
neutralization IC50 [6]: 0.005 µg/mL
neutralization IC80 [6]: 0.021 µg/mL
IC50 [7]: 1.12 µg/mL
IC80 [7]: 9.37 µg/mL
neutralization IC50 [8]: 0.019 µg/mL
neutralization IC80 [8]: 0.071 µg/mL
IC50 [9]: 0.053 µg/mL
IC80 [9]: 0.373 µg/mL
neutralization IC50 [10]: 0.051 µg/mL
neutralization IC80 [10]: 0.143 µg/mL
IC50 [11]: 0.033 µg/mL
IC80 [11]: 0.117 µg/mL
neutralization IC50 [12]: 0.904 µg/mL
neutralization IC80 [12]: 16.8 µg/mL
IC50 [13]: 0.018 µg/mL
IC80 [13]: 0.049 µg/mL
IC50 [14]: 0.019 µg/mL
IC80 [14]: 0.065 µg/mL
neutralization IC50 [15]: 0.02 µg/mL
neutralization IC80 [15]: 0.076 µg/mL
neutralization IC50 [16]: 0.011 µg/mL
neutralization IC80 [16]: 0.033 µg/mL
neutralization IC50 [17]: 0.013 µg/mL
neutralization IC80 [17]: 0.198 µg/mL
neutralization IC50 [18]: 0.028 µg/mL
neutralization IC80 [18]: 0.126 µg/mL
